According to patent publication US20120308566A1:

How the values were obtained:
[1] = target: Human IL-17RA full-length expressed on the surface of cells (human) (UniProt Q96F46); experiment: cell-based or functional assay
[2] = target: chimera L; experiment: Bio-Plex titration on His-captured chimera; bold cell = binding criterion not met

% inhibition of IL-6 production, IL-17A/HFF bioassay, supernatant 19 (incl. AMH23), 1:4 dilution [1]	% inhibition of IL-6 production, IL-17A/HFF bioassay, supernatant 19 (incl. AMH23), 1:32 [1]	% inhibition of IL-6 production, repeat IL-17A/HFF bioassay, supernatant 19 (incl. AMH23), 1:4 [1]	% inhibition of IL-6 production, repeat IL-17A/HFF bioassay, supernatant 19 (incl. AMH23), 1:32 [1]	% inhibition of IL-6 production, repeat IL-17A/HFF bioassay, supernatant 19 (incl. AMH23), 1:128 [1]	% inhibition of IL-6 production, repeat IL-17A/HFF bioassay, supernatant 19 (incl. AMH23), 1:512 [1]	EC50 as fitted, in a bold cell (binding criterion not met) [2]	Binder
79%	72%	86%	76%	67%	50%	–	AMH23/AML23 (antibody, part only; not given: light variable domain, version unclear, V domains shown, part only) VH: QVQLQESGPGLVKPSETLSLTCTVSGGSISSYYWSWIRQPAGKRLEWIGRIYPSGRTNYNPSLKSRVTMSVDTSKNQFSLKLSSVTAADTAVYYCAREAYELQLGLYYYYGMDVWGQGTPVTVSS
–	–	–	–	–	–	6 pM	AMH26/AML26 (antibody, IgG2, V domains shown) VH: QVQLVESGGGLVKPGGSLRLSCAASGFTFSDYYMSWIRQAPGKGLEWVSYISSSGSTIYYADSVKGRFTISRDNAKNSLYLQMNSLRAEDTAVYYCARDRTYYFGSGSYEGMDVWGQGTTVTVSS VL: EILMTQSPATLSVSPGERATLSCRASQSVYSNLAWYQQKPGQAPRLLISGASTRATGIPARFSGSGSGTEFTLTISSLQSEDFAVYYCQQYYNWPWTFGQGTKVEIK
